Data from paper PMC12421377, “Molecular basis for the recognition of low-frequency polyadenylation signals by mPSF”.

B1: ACUAAA 12-mer (ssRNA)
RNA: UGCACUAAACAA
B2: AUUAAA 12-mer (ssRNA)
RNA: UGCAUUAAACAA
B3: AUUAUA 12-mer (ssRNA)
RNA: UGCAUUAUACAA
B4: AAUAAG 12-mer (ssRNA)
RNA: UGCAAUAAGCAA
B5: CUAUAAA-context UAUAAA 12-mer (ssRNA)
RNA: UGCUAUAAACAA
B6: GAUAAA 12-mer (ssRNA)
RNA: UGCGAUAAACAA
B7: AAUACA 12-mer (ssRNA)
RNA: UGCAAUACACAA
B8: AACAAA 12-mer (ssRNA)
RNA: UGCAACAAACAA
B9: CAUAAA 12-mer (ssRNA)
RNA: UGCCAUAAACAA
B10: AAUAUA 12-mer (ssRNA)
RNA: UGCAAUAUACAA
B11: AAUAGA 12-mer (ssRNA)
RNA: UGCAAUAGACAA
B12: AAGAAA 12-mer (ssRNA)
RNA: UGCAAGAAACAA
B13: AAUGAA 12-mer (ssRNA)
RNA: UGCAAUGAACAA
B14: AGUAAA 12-mer (ssRNA)
RNA: UGCAGUAAACAA
B15: AAUAAU 12-mer (ssRNA)
RNA: UGCAAUAAUCAA
B16: AAUAAA 12-mer (ssRNA)
RNA: UGCAAUAAACAA

Target: T1, mPSF (CPSF160-WDR33-CPSF30-Fip1) (human, UniProt Q10570;Q9C0J8;O95639-2;Q6UN15 1-1443;1-572;1-244;1-594)
T1 sequence (Q10570 whole entry, chain 1 of 4): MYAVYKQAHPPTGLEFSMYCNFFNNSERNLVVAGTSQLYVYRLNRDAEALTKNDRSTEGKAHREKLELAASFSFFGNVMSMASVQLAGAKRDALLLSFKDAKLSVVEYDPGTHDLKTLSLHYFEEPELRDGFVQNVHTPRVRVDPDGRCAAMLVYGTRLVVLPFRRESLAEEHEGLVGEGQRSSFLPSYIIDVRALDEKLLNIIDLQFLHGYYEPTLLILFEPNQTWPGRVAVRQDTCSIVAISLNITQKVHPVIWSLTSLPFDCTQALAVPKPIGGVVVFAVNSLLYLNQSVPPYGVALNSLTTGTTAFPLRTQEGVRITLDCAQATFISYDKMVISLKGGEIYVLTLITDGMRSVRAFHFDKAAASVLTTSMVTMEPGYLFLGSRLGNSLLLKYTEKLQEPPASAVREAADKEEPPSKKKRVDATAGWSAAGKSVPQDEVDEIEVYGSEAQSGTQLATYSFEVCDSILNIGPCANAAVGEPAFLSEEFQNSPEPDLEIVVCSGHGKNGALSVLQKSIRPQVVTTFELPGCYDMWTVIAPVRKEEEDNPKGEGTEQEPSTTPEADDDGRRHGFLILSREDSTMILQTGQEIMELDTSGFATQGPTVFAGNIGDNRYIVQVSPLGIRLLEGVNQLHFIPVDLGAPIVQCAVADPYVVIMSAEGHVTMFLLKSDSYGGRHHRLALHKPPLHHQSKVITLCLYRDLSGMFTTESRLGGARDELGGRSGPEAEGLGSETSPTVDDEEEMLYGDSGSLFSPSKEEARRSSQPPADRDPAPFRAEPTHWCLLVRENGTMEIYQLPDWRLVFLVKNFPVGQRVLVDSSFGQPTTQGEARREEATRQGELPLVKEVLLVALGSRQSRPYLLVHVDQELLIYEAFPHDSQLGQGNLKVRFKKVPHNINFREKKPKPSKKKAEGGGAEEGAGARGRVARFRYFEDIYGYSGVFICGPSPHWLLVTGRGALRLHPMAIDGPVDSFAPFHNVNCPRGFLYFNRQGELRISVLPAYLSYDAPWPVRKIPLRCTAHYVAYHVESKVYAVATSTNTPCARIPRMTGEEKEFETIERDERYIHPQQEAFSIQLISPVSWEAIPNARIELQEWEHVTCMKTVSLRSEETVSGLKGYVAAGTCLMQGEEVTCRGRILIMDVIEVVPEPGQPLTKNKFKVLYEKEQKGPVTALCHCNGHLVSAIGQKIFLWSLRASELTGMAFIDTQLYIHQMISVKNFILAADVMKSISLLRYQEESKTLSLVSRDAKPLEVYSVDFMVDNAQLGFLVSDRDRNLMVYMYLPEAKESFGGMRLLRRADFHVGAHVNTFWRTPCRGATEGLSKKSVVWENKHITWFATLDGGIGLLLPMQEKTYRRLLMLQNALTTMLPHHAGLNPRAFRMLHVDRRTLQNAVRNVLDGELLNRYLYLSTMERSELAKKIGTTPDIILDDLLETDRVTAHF
T1 sequence (Q9C0J8 1-572, chain 2 of 4): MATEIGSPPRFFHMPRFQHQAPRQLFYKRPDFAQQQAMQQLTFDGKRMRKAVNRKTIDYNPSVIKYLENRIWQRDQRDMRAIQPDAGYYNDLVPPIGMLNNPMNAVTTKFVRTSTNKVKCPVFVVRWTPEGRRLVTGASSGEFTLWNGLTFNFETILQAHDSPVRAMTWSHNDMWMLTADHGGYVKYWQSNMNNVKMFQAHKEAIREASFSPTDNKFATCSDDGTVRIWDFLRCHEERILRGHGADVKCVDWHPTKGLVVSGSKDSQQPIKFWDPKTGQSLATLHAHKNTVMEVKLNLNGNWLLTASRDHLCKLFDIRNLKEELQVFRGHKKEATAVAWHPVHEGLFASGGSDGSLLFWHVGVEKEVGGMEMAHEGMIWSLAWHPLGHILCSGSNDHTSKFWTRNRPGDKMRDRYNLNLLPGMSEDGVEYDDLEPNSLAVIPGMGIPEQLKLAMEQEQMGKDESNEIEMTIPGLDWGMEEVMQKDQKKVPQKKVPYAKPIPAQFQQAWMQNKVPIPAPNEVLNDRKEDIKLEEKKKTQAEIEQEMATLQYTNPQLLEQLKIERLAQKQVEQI
T1 sequence (O95639 other isoform, or with tags, fused parts or gaps, chain 3 of 4): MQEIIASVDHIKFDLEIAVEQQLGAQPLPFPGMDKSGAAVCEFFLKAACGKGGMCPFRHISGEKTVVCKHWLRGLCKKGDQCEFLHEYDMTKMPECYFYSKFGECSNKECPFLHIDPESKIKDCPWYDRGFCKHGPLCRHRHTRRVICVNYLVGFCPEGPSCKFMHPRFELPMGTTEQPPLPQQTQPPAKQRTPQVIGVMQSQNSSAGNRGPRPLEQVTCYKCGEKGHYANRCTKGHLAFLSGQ
T1 sequence (Q6UN15 whole entry, chain 4 of 4): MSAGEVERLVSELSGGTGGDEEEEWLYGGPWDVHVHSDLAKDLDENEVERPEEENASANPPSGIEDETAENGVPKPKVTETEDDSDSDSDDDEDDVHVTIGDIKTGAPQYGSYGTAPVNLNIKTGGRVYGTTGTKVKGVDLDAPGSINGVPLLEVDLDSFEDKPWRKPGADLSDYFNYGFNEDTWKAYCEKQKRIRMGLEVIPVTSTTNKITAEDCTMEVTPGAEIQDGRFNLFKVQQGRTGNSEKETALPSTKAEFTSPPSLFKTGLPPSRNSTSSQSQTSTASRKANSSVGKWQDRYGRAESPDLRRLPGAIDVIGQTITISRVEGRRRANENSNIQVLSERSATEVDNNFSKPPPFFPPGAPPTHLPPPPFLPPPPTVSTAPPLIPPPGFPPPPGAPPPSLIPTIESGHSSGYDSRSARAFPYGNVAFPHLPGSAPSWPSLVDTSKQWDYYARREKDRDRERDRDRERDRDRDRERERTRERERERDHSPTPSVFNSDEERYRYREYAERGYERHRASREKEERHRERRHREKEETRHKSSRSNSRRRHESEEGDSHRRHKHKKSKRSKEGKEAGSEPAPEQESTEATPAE
Experiment: competition fluorescence anisotropy; vs FAM-AAUAAA; 20 mM Tris pH 8.0, 150 mM NaCl, 10 mM DTT, 100 nM BSA, 0.01% NP-40; 45 min on ice, read at room temperature; triplicates
Conditions: protein: recombinant; copies: 1;1;1;1

Point of comparison: B10, Kd 2.5 µM. Against it:
- B1 — within 1.5-fold, 2.7 µM
- B2 — 32-fold lower, 0.079 µM
- B3 — within 1.5-fold, 2.14 µM
- B4 — 4.6-fold higher, 11.5 µM
- B5 — 4.8-fold lower, 0.52 µM
- B6 — 4.3-fold lower, 0.58 µM
- B7 — within 1.5-fold, 2.2 µM
- B8 — 5.2-fold higher, 13 µM
- B9 — 3.2-fold lower, 0.78 µM
- B11 — within 1.5-fold, 2 µM
- B12 — within 1.5-fold, 1.87 µM
- B13 — 2.1-fold lower, 1.18 µM

Target: T1, mPSF (CPSF160-WDR33-CPSF30-Fip1)
Experiment: cryo-EM structure (2.5 A); RNA up to 40 uM, mPSF 1.4 uM; 20 mM Tris pH 8.0, 150 mM NaCl, 10 mM DTT, 100 nM BSA, 0.01% NP-40; 45 min on ice, read at room temperature; triplicates
Conditions: protein: recombinant; copies: 1;1;1;1

B14: binds.

Target: T1, mPSF (CPSF160-WDR33-CPSF30-Fip1)
Experiment: cryo-EM structure (3.1 A); RNA up to 40 uM, mPSF 1.4 uM; 20 mM Tris pH 8.0, 150 mM NaCl, 10 mM DTT, 100 nM BSA, 0.01% NP-40; 45 min on ice, read at room temperature; triplicates
Conditions: protein: recombinant; copies: 1;1;1;1

B15: binds.

Target: T1, mPSF (CPSF160-WDR33-CPSF30-Fip1)
Experiment: competition fluorescence anisotropy; vs 3 nM FAM-AAUAAA, 30 nM mPSF; 20 mM Tris pH 8.0, 150 mM NaCl, 10 mM DTT, 100 nM BSA, 0.01% NP-40; 45 min on ice, read at room temperature; triplicates
Conditions: protein: recombinant; copies: 1;1;1;1

Work on B16 yielded a Kd of 0.04 µM.
